First the molecules themselves.
T1: PRAME peptide on HLA-A*02:01 (human)
T1 peptide: RLDQLLRHV

B1: PN46889 (TCR, V domains shown)
V domain 1: QKEVEQNSGPLSVPEGAIASLNCTYSDRGSQSFFWYRQYSGKSPELIMSIYSNGDKEDGRFTAQLNKASQYVSLLIRDSQPSDSATYLCAVNIPNSGYSTLTFGKGTMLLVSP
V domain 2: NAGVTQTPKFRVLKTGQSMTLLCAQDMNHEYMYWYRQDPGMGLRLIHYSVGEGTTAKGEVPDGYNVSRLKKQNFLLGLESAAPSQTSVYFCASSYWEGTEAFFGQGTRLTVV
notes: stained with anti-mouse TCR constant region antibody H57-597) and full-length chains were expressed on CHO cells
B2: PN46733 (TCR, V domains shown)
V domain 1: GESVGLHLPTLSVQEGDNSIINCAYSNSASDYFIWYKQESGKGPQFIIDIRSNMDKRQGQRVTVLLNKTVKHLSLQIAATQPGDSAVYFCAENNYGQNFVFGPGTRLSVLP
V domain 2: NAGVTQTPKFQVLKTGQSMTLQCAQDMNHNSMYWYRQDPGMGLRLIYYSASEGTTDKGEVPNGYNVSRLNKREFSLRLESAAPSQTSVYFCASSDWGQGVEAFFGQGTRLTVV
notes: as for B1
B3: PN46914 (TCR, V domains shown)
V domain 1: AQKVTQAQPEISVVEKEDVTLDCVYETRDTTYYLFWYKQPPSGELVFLIRRNSFDEQNEISGRYSWNFQKSTSSFNFTITASQVVDSAVYFCALSEGYNQGGKLIFGQGTELSVKP
V domain 2: DVKVTQSSRYLVKRTGEKVFLECVQDMDHENMFWYRQDPGLGLRLIYFSYDVKMKEKGDIPEGYSVSREKKERFSLILESASTNQTSMYLCASGADSNQPQHFGDGTRLSIL
notes: as for B1
B4: PN46777 (TCR, V domains shown)
V domain 1: AQTVTQSQPEMSVQEAETVTLSCTYDTSENNYYLFWYKQPPSRQMILVIRQEAYKQQNATENRFSVNFQKAAKSFSLKISDSQLGDTAMYFCALMEYGNKLVFGAGTILRVKS
V domain 2: DAGITQSPRYKITETGRQVTLMCHQTWSHSYMFWYRQDLGHGLRLIYYSAAADITDKGEVPDGYVVSRSKTENFPLTLESATRSQTSVYFCASSDGTGYYGYTFGSGTRLTVV
notes: as for B1
B5: PN46738 (TCR, V domains shown)
V domain 1: AQTVTQSQPEMSVQEAETVTLSCTYDTSENNYYLFWYKQPPSRQMILVIRQEAYKQQNATENRFSVNFQKAAKSFSLKISDSQLGDTAMYFCAFGMYSGGGADGLTFGKGTHLIIQP
V domain 2: B4 V domain 2
notes: as for B1
B6: PN46797 (TCR, V domains shown)
V domain 1: B4 V domain 1 with G98E
V domain 2: B4 V domain 2
notes: as for B1
B7: PN46871 (TCR, V domains shown)
V domain 1: KQEVTQIPAALSVPEGENLVLNCSFTDSAIYNLQWFRQDPGKGLTSLLLIQSSQREQTSGRLNASLDKSSGRSTLYIAASQPGDSATYLCAVEGTTDSWGKFQFGAGTQVVVTP
V domain 2: AAGVIQSPRHLIKEKRETATLKCYPIPRHDTVYWYQQGPGQDPQFLISFYEKMQSDKGSIPDRFSAQQFSDYHSELNMSSLELGDSALYFCASSSQGQPQHFGDGTRLSIL
notes: as for B1
B8: PN46731 (TCR, V domains shown)
V domain 1: GENVEQHPSTLSVQEGDSAVIKCTYSDSASNYFPWYKQELGKRPQLIIDIRSNVGEKKDQRIAVTLNKTAKHFSLHITETQPEDSAVYFCAAWNYGQNFVFGPGTRLSVLP
V domain 2: B7 V domain 2 with S95L, Q96E, Q98S, P99E, Q100A, H101F, D104Q, S109T, I110V, L111V
notes: as for B1
B9: PN46853 (TCR, V domains shown)
V domain 1: ILNVEQSPQSLHVQEGDSTNFTCSFPSSNFYALHWYRWETAKSPEALFVMTLNGDEKKKGRISATLNTKEGYSYLYIKGSQPEDSATYLCACGGSGNTGKLIFGQGTTLQVKP
V domain 2: B7 V domain 2
notes: as for B1
B10: PN46723 (TCR, V domains shown)
V domain 1: EDQVTQSPEALRLQEGESSSLNCSYTVSGLRGLFWYRQDPGKGPEFLFTLYSAGEEKEKERLKATLTKKESFLHITAPKPEDSATYLCAVQEDGGSQGNLIFGKGTKLSVKP
V domain 2: DAGVTQSPTHLIKTRGQQVTLRCSPISGHKSVSWYQQVLGQGPQFIFQYYEKEERGRGNFPDRFSARQFPNYSSELNVNALLLGDSALYLCASSRDINEKLFFGSGTQLSVL
notes: as for B1
B11: PN46678 (TCR, V domains shown)
V domain 1: AQKVTQAQPEISVVEKEDVTLDCVYETRDTTYYLFWYKQPPSGELVFLIRRNSFDEQNEISGRYSWNFQKSTSSFNFTITASQVVDSAVYFCALSEFDRGSTLGRLYFGRGTQLTVWP
V domain 2: B10 V domain 2
notes: as for B1
B12: PN46714 (TCR, V domains shown)
V domain 1: B10 V domain 1 with E92A
V domain 2: B10 V domain 2 with R95L, E99S, K100P, F102H, S105N, Q108R, S110T, L112T
notes: as for B1
B13: PN46735 (TCR, V domains shown)
V domain 1: DAKTTQPNSMESNEEEPVHLPCNHSTISGTDYIHWYRQLPSQGPEYVIHGLTSNVNNRMASLAIAEDRKSSTLILHRATLRDAAVYYCILREYMYSGGGADGLTFGKGTHLIIQP
V domain 2: DAGVTQSPTHLIKTRGQQVTLRCSPISGHKSVSWYQQVLGQGPQFIFQYYEKEERGRGNFPDRFSARQFPNYSSELNVNALLLGDSALYLCASSFQAGVNYGYTFGSGTRLTVV
notes: as for B1

Changes are numbered by the printed parent chain.

One assay addresses T1, PRAME peptide on HLA-A*02:01. Briefly: multimer staining.
B1: the binding result is “recognises”.
Take B2: the binding result is on record as “recognises”.
The same measure, in the same setting: with B3 the entry was “recognises”; with B4, “recognises”; with B5, “recognises”.
Consider B6, for which the binding result is recorded as “recognises”.
Same read-out and setting: as for B7, the entry is “recognises”.
On the same count and under the same terms, with B8 the entry was “recognises”; with B9, “recognises”.
As to B10, the binding result is given as “recognises”.
For B11, the binding result is reported as “recognises”.
As to B12, the binding result is given as “recognises”.
Same read-out and setting: with B13 the entry was “recognises”.

The target in another assay is T2, soluble HLA-A2:PRAME (312-320) tetramer (human).
T2 construct: Commercial tetramer (MBL International); construct limits, biotin tag and streptavidin/fluorophore not described; also called PRAME/HLA tetramer reagent
Briefly: flow cytometry, soluble pMHC tetramer on CHO cells expressing the TCR.
As for B1, the “Cell Frequency ≥1000 MFI, ≥1% (% tetramer positive cells in the Ag+ gate)” value is 92.5%.
Same read-out and setting: as for B2, the figure is 87.9%.
Consider B3, for which the “Cell Frequency ≥1000 MFI, ≥1% (% tetramer positive cells in the Ag+ gate)” value was found to be 11.5%.
As to B4, the “Cell Frequency ≥1000 MFI, ≥1% (% tetramer positive cells in the Ag+ gate)” value came to 98.9%.
Still for that read-out and setting: as for B5, the figure is 23%.
With B6, the “Cell Frequency ≥1000 MFI, ≥1% (% tetramer positive cells in the Ag+ gate)” value amounted to 57.3%.
Regarding B7, the “Cell Frequency ≥1000 MFI, ≥1% (% tetramer positive cells in the Ag+ gate)” value came to 44.7%.
On the same count and under the same terms, as for B8, the figure is 15.7%; as for B9, 35.4%.
On the same count and under the same terms, as for B10, the figure is 72.5%; as for B11, 11%.
As for B12, the “Cell Frequency ≥1000 MFI, ≥1% (% tetramer positive cells in the Ag+ gate)” value is 62.1%.
Same read-out and setting: as for B13, the figure is 17.9%.

The record behind these values is patent US20230060095A1 (Regeneron, published 2023).
